T1: GgeAgo (Geobacillus genomosp. 3, UniProt S5Z517 1-710)
T1 sequence: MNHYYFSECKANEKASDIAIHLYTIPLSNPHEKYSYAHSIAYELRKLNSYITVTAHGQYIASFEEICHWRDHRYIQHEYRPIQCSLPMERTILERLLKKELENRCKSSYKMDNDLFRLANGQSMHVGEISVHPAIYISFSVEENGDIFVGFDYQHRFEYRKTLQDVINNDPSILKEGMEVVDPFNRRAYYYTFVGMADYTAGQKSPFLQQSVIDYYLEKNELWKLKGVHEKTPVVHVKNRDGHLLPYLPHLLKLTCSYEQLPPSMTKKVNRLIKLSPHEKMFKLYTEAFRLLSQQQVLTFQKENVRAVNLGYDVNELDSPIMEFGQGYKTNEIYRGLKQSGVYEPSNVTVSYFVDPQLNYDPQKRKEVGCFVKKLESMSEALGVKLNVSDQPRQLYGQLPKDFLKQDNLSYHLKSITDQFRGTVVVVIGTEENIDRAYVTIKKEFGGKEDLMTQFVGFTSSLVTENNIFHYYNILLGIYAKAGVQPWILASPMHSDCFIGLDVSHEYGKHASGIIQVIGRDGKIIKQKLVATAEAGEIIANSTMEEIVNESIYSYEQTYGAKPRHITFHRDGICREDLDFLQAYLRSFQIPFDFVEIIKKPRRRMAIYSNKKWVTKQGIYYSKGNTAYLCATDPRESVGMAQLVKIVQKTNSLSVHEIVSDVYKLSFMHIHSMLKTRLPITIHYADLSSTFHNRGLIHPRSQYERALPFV

T2: GgeAgo_DM (Geobacillus genomosp. 3, UniProt S5Z517 1-710, D502A;D571A)
T2 sequence: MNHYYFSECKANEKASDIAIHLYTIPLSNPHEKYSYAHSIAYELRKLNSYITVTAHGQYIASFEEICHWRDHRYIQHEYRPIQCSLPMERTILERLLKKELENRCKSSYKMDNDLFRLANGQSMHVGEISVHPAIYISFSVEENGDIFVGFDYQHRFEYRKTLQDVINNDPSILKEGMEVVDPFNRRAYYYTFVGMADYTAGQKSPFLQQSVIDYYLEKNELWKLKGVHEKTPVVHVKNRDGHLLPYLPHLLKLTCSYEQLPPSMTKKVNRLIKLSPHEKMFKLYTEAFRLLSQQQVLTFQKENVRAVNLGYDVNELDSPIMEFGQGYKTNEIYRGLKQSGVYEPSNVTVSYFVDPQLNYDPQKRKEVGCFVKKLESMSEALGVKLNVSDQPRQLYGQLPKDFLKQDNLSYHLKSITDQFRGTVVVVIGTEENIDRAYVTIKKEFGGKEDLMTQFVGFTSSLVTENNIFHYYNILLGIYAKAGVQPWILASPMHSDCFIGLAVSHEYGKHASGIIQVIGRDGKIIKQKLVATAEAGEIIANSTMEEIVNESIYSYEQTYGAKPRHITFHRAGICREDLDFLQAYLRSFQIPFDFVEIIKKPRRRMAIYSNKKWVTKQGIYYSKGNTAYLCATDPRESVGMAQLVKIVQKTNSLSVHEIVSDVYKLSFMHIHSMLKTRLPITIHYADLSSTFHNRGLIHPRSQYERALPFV

B1: 5'P-gDNA / T-tDNA target (mixed)
DNA 1: TGAGGTAGTAGGTTGTAT
DNA 2: AAACGACGGCCAGTGCCAAGCTTACTATACAACCTACTACCTCAT
modifications: guide 5' phosphate
B2: 5'OH-gDNA / T-tDNA target (mixed)
DNA 1: TGAGGTAGTAGGTTGTAT
DNA 2: AAACGACGGCCAGTGCCAAGCTTACTATACAACCTACTACCTCAT
modifications: guide 5' OH
B3: 5'P-gDNA / U-tRNA (RNA target) (DNA:RNA)
DNA: TGAGGTAGTAGGTTGTAT
RNA: AAACGACGGCCAGUGCCAAGCUUACUAUACAACCUACUACCUCAU
modifications: guide 5' phosphate
B4: 5'OH-gDNA / U-tRNA (RNA target) (DNA:RNA)
DNA: TGAGGTAGTAGGTTGTAT
RNA: AAACGACGGCCAGUGCCAAGCUUACUAUACAACCUACUACCUCAU
modifications: guide 5' OH

target: T1, GgeAgo; test: fluorescence polarization

TGAGGTAGTAGGTTGTAT (ssDNA, 5' OH) [5'OH-gDNA (T-gDNA iFAM)] and TGAGGTAGTAGGTTGTAT (ssDNA, 5' phosphate) [5'P-gDNA (T-gDNA iFAM)] are within error of each other in Kd: 11.1 ± 1.88 nM for the first, 8.23 ± 1.47 nM for the second.

target: T2, GgeAgo_DM; test: fluorescence polarization

First: B1
Second: B2
The Kd of the first is 2.3-fold lower: 8.69 ± 1.28 nM for the first, 20 ± 2.29 nM for the second.

Going from B3 to B4, the Kd rises from 10.7 ± 1.11 nM to 32.2 ± 4.9 nM (3-fold).

From paper PMC12657969
